Data from doi:10.1101/594168, “Pat1 activates late steps in mRNA decay by multiple mechanisms” (bioRxiv, 2019).

B1: MBP-PatMC (Pat1 residues 296-754) (domain or fragment, S. pombe, UniProt O42958 296-754, looked up)
chain: LDEKRQKLERDHMLMAQCAGLMTRSDKSFIARIQISQLMSEDPESDDFYYRVYSIIRGRKPSEEEASHFIQTYLGPSNNRRRGRRSENPMQKLQQQLQRLVSSAKERPKATQLSLEGALGKIAVNTVRTPRQLLNVKRPTEPASSNSSLNNFSGFSTKKDVLHAIEKVYDLLLDFEQALRKASTLETTDQEQIDTWKTTLSEKLESIWKALYINESLEASSKTRPPFISIISHPKGMRLLPRLFPHLSKEQQISILKVVVYNFDSLDIVLRGTFDVNGELPLDVVSEMSSFTQFIIPPLLTIVNELDLETINNLFSQLLNRTNAVYLIQTKIGLSFLTLFISRAEILKQSGTVNQNEKEEWENTFNVMFNRVKGHFSTVFPPPNARAYADESYPWEFLAACATAASSEQHFTLVSETRDRVLDNIITSKRAPSEIAVVRISNVNLFLNAMGLDARQLSA
notes: The MBP tag was not removed from constructs that contain the middle domain; also called SpPatMC; H6MBP-PatMC; source: E. coli BL21(DE3)*, purified (Ni-NTA, SEC); not shown: His6, N-terminal, kept; MBP, N-terminal, kept
B2: MBP-PatMC L457A/E461K (domain or fragment, S. pombe, UniProt O42958 296-754, looked up)
chain: LDEKRQKLERDHMLMAQCAGLMTRSDKSFIARIQISQLMSEDPESDDFYYRVYSIIRGRKPSEEEASHFIQTYLGPSNNRRRGRRSENPMQKLQQQLQRLVSSAKERPKATQLSLEGALGKIAVNTVRTPRQLLNVKRPTEPASSNSSLNNFSGFSTKKDVAHAIKKVYDLLLDFEQALRKASTLETTDQEQIDTWKTTLSEKLESIWKALYINESLEASSKTRPPFISIISHPKGMRLLPRLFPHLSKEQQISILKVVVYNFDSLDIVLRGTFDVNGELPLDVVSEMSSFTQFIIPPLLTIVNELDLETINNLFSQLLNRTNAVYLIQTKIGLSFLTLFISRAEILKQSGTVNQNEKEEWENTFNVMFNRVKGHFSTVFPPPNARAYADESYPWEFLAACATAASSEQHFTLVSETRDRVLDNIITSKRAPSEIAVVRISNVNLFLNAMGLDARQLSA
notes: also called SpPatMC L457A/E461K; Mut; source: E. coli BL21(DE3)*, purified (Ni-NTA, SEC); not shown: His6, N-terminal, kept; MBP, N-terminal, kept
B3: MBP-Pat1 317-754 (domain or fragment, S. pombe, UniProt O42958 317-754, looked up)
chain: MTRSDKSFIARIQISQLMSEDPESDDFYYRVYSIIRGRKPSEEEASHFIQTYLGPSNNRRRGRRSENPMQKLQQQLQRLVSSAKERPKATQLSLEGALGKIAVNTVRTPRQLLNVKRPTEPASSNSSLNNFSGFSTKKDVLHAIEKVYDLLLDFEQALRKASTLETTDQEQIDTWKTTLSEKLESIWKALYINESLEASSKTRPPFISIISHPKGMRLLPRLFPHLSKEQQISILKVVVYNFDSLDIVLRGTFDVNGELPLDVVSEMSSFTQFIIPPLLTIVNELDLETINNLFSQLLNRTNAVYLIQTKIGLSFLTLFISRAEILKQSGTVNQNEKEEWENTFNVMFNRVKGHFSTVFPPPNARAYADESYPWEFLAACATAASSEQHFTLVSETRDRVLDNIITSKRAPSEIAVVRISNVNLFLNAMGLDARQLSA
notes: also called PatMC lacking the LAR; source: E. coli BL21(DE3)*, purified (Ni-NTA, SEC); not shown: His6, N-terminal, kept; MBP, N-terminal, kept
B4: MBP-Pat1 296-431 (domain or fragment, S. pombe, UniProt O42958 296-431, looked up)
chain: LDEKRQKLERDHMLMAQCAGLMTRSDKSFIARIQISQLMSEDPESDDFYYRVYSIIRGRKPSEEEASHFIQTYLGPSNNRRRGRRSENPMQKLQQQLQRLVSSAKERPKATQLSLEGALGKIAVNTVRTPRQLLNV
notes: also called construct containing most of the middle domain of Pat1; source: E. coli BL21(DE3)*, purified (Ni-NTA, SEC); not shown: His6, N-terminal, kept; MBP, N-terminal, kept

biological target: T1, Lsm1-7 complex (S. pombe, UniProt P87173 1-140; O94408 1-96; Q9Y7M4 1-93; O14352 1-121; O42978 1-80; Q9UUI1 1-75; …); assay: pull-down; 10 µM MBP-tagged Pat1 construct and 10 µM Lsm1-7 mixed 15 min at room temperature, bound to amylose beads, washed four times, eluted with 10 mM maltose; SEC buffer (20 mM HEPES pH 7, 150 mM NaCl, 1 mM DTT); SDS-PAGE, Instant Blue stain; conditions: both partners purified
T1 construct: Lsm1, S. pombe; Lsm2, S. pombe; Lsm3, S. pombe; Lsm4, S. pombe; Lsm5, S. pombe; Lsm6, S. pombe; Lsm7, S. pombe; Heteroheptameric ring formed beforehand; the His6-TEV tag stood on the N-terminus of Lsm1 and was cleaved with TEV protease; also called Lsm1-7 ring; source: E. coli BL21(DE3)*, co-expressed from a polycistronic gene, purified (Ni-NTA, heparin, SEC); not shown: His6, N-terminal, …

Binding result, binds:
B1
B2
B3
B4
